Changes are numbered by the printed parent chain. Values belong to the binder of their own block, whether it stands above or below them.
Key:
[1] = target: T1, cynomolgus IL-17RA on the cell surface (cynomolgus); test: FACS competition, non-clonal hybridoma supernatant vs biotin-huIL-17A (500 ng/ml) on cynomolgus IL-17RA+ CHO cells; lower = more inhibition
T1 construct: whole, on cells; also called CHO-cynoIL-17RA; cyno IL-17RA+ CHO cells
Protocol: Non-clonal hybridoma supernatants were prepared in volumes of 1-2 mls (the Ig concentrations were not determined for these supernatants). […] Anti-IL-17RA non-clonal hybridomas were selected for sub-cloning based on their performance in the CHO-IL-17RA FACS assay and HFF bioassay.

[2] = target: T1, cynomolgus IL-17RA on the cell surface; test: FACS competition, non-clonal hybridoma supernatant vs biotin-huIL-17A (500 ng/ml) on cyno IL-17RA+ CHO cells; lower = more inhibition
Protocol: The anti-IL-17RA antibodies were characterized. Non-clonal hybridoma supernatants were prepared in volumes of 1-2 mls (the Ig concentrations were not determined for these supernatants).

[3] = target: T1, cynomolgus IL-17RA on the cell surface; test: FACS competition, non-clonal hybridoma supernatant vs biotin-huIL-17A (500 ng/ml) on cyno IL-17RA+ cells; lower = more inhibition
[4] = target: T1, cynomolgus IL-17RA on the cell surface; test: cell-based or functional assay
D152R IL-17RA mutant = target: T2, D152R IL-17RA mutant (human, UniProt Q96F46 33-320); test: Bio-Plex titration on His-captured D152R IL-17RA mutant; signal as percent of maximum wild-type MFI
T2 construct: Arginine scan mutant of huIL-17RA-FLAG-polyHis; also called huIL-17RA-FLAG-polyHis D152R
T2 sequence (Q96F46 other isoform, or with tags, fused parts or gaps D152R D152R limits assumed): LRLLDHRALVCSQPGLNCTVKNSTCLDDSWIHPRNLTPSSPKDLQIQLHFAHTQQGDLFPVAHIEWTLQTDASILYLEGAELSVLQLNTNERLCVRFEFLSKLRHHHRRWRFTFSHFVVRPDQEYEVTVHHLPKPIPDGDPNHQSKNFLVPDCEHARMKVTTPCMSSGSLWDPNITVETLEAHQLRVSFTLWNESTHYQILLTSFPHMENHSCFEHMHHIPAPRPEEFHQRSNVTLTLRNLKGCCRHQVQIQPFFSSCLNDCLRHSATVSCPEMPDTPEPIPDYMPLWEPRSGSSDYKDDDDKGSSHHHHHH
Protocol: Twelve bead codes of pentaHis-coated beads (Qiagen, Valencia, Calif.; see www1.qiagen.com) were used to capture histidine-tagged protein.
To prepare the beads, 100 ul of wild-type IL-17RA and IL-17RA arginine mutant supernatants from transient expression culture were bound to penta-His-coated beads overnight at 4° C. or 2 hours at room temperature with vigorous shaking. The beads were washed as per the manufacturer's protocol and the 12 bead set was pooled and aliquoted into 2 or 3 columns of a 96-well filter plate (Millipore, Bellerica, Mass., product #MSBVN1250) for duplicate or triplicate assay points, respectively. 100 ul anti-IL-17RA antibodies in 4-fold dilutions were added to the wells, incubated for 1 hour at room temperature, and washed. […] Beads were resuspended in 1% BSA, shaken for 3 minutes, and read on the Bio-Plex workstation. Antibody binding to IL-17RA arginine mutant protein was compared to antibody binding to the human IL-17RA wild-type from the same pool. A titration of antibody over approximately a 5 log scale was performed. Median Fluorescence Intensity (MFI) of IL-17RA arginine mutant proteins was graphed as a percent of maximum wild-type human IL-17RA signal.

MFI [1]: 6
B1: AMH13/AML13 (antibody, IgG2, V domains shown)
VH: QVQLVESGGGVVQPGRSLRLSCAASGFTFSSYGMQWVRQAPGKGLEWVAVIWYDGNKKYYADSVKGRFTISRDNSKNTLYLQMNSLRAEDTAVYYCARGRVRDYYYGMDVWGQGTTVTVSS
VL: DIVMTQTPLSLSVTPGQPASIACKSSQSLLHSDGKTYLYWYLQKPGQPPQLLIYEVSTRFSGVPDRFSGSGSGTDFTLKISRVEAEDVGVFYCMQSIQLPLTFGGGTKVEIK
notes: also called AM-13

MFI [2]: 6
B2: AMH21/AML21 (antibody, IgG2, V domains shown)
VH: EVQLVESGGGSVQPGGSLRLSCAASGFTFSSYSMNWVRQAPGKGLEWVSIISSRSSIIHYADSVKGRFTISRDNAKNSLYLQMNSLRDEDTAVYYCARPKVGGGMDVWGQGTTVTVSS
VL: DIQMTQSPSSLSASVGDRVTITCRASQGISNYLAWYQQKPGKFPELLIYAASTLQSGVPSRFSGSGSGTDFTLTISSLQPEDVATYYCQKYNRAPFTFGPGTKVDIK
notes: also called AM-21

MFI [3]: 9
B3: AMH11/AML11 (antibody, IgG2, V domains shown)
VH: QVQLVESGGGVVQPGRSLRLSCATSGITFSSYGMHWVRQAPGKGLEWVAVIWYDGSNKYYADSVKGRFTISRDNSKNTLYLQMNSLRAEDTAVYYCARDTKDYWGQGTLVTVSS
VL: EIVMTQSPATLSVSPGERATLSCRASQSVSSNLAWYQQKPGQAPRLLIYGASTRAAGIPARFSGGGSGTAFTLTISNLQSEDFAVYYCQHYINWPKWTFGQGTKVDIK
notes: also called AM-11

MFI [3]: 18
B4: AMH22/AML22 (antibody, IgG2, V domains shown)
VH: QVQLVQSGAEVKKPGASVKVSCKASGYTFTRYGISWVRQAPGQGLEWMGWISAYSGNTNYAQKLQGRVTMTTDTSTSTAYMELRSLRSDDTAVYYCARRQLYFDYWGQGTLVTVSS
VL: EIVMTQSPATLSVSPGERVTLSCRASQSVSSNLAWFQQKPGQAPRPLIYDASTRAAGIPARFSGSGSGTDFTLTISSLQSEDFAVYYCQQYDNWPLTFGGGTKVEIK
notes: also called AM-22

MFI [2]: 6
B5: AMH15/AML15 (antibody, IgG2, V domains shown)
VH: B1 VH
VL: B4 VL
notes: IgG2 XenoMouse; also called AM-15

MFI [1]: 8
B6: AMH17/AML17 (antibody, V domains shown)
VH: B4 VH with S17A, S25T, F29L, R31S, N59K, R99K, Y102V
VL: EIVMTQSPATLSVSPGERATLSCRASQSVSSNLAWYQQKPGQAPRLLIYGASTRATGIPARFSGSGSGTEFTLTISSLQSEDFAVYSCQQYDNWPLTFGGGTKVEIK
notes: also called AM-17

MFI [1]: 6
B7: AMH16/AML16 (antibody, IgG2, V domains shown)
VH: B4 VH with R31S, S55N, N59K, A79V, R99K, Y102V
VL: EIVMTQSPATLSVSPGERATLSCRASQSISTSLAWYQQKPGQAPRLLIYGTSTRATGIPARFSGSGSGTEFTLTISSLQSEDFAVYFCQQYDIWPLTFGGGTKVEIK
notes: also called AM-16

IC50, cynomolgous IL-17A-induced IL-6 production from JTC-12 cells [4]: ~1200 pM
MFI [2]: 10
B8: AMH14/AML14 (antibody, IgG2, V domains shown)
VH: B4 VH with A53T
VL: B4 VL with V19A, A56T, I58V
notes: Fully human mAb from IgG2 XenoMouse mice; also called AM-14

MFI [1]: 6
B9: AMH12/AML12 (antibody, IgG2, V domains shown)
VH: B4 VH with F29L, R31S, A53T, S55K, R99K, Y102V
VL: B7 VL with T31S, T51A, D82N, F87Y, I93N
notes: also called AM-12

MFI [3]: 9
B10: AMH5/AML5 (antibody, IgG2, V domains shown)
VH: QVQLQESGPGLVKPSETLPLTCTVSGGSIRSYYWSWIRQPAGKGLEWIGRIYRSGNTIYNPSLKSRVTMSIDTSKNQFSLTLSSVTAADTAVYYCARENYSESSGLYYYYGMDVWGQGTTVTVSS
VL: DIQMTQSPSSLSASVGDRVTITCRASQGIRNDLGWYQQKPGKAPKRLIYAASSFQSGVPSRFSGSGSGTGFTLTISSLQPEDFATYYCLQHNSYPPTFGQGTKVEIK
notes: IgG2 XenoMouse; also called AM-5

MFI [3]: 11
B11: AMH1/AML1 (antibody, V domains shown)
VH: QVQLQESGPGLVKPSETLSLTCTVSGGSISNYYWNWIRQSPGKGLEWIGDIYYSGSTNYNPSLKSRVTISVDTSKNQFSLKLSSVTTADTAVYYCARDGELANYYGSGSYQFYYYYGMDVWGQGTTVTVSS
VL: B10 VL with Q3L, F54L, G70E, Y94N, P96F, Q100P, E105D
notes: also called AM-1

EC50 (read off the curve) (D152R IL-17RA mutant): ~80 pM
B12: AMH18/AML18 (antibody, IgG2, V domains shown)
VH: QVQLVQSGAEVKKPGASVKVSCKASGYSFTDYYMHWVRQAPGQGLEWMGWMHPNSGGTDLAQRFQGRVTMTRDTSISTAYMELSRLRSDDTAVYYCARGGYCSTLSCSFYWYFDLWGRGTLVTVSS
VL: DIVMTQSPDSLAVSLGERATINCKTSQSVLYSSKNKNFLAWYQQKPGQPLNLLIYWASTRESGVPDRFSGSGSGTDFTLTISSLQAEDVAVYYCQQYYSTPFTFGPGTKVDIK
notes: also called AM-18

Reference: US20110166331A1 (Amgen, published 2011)
